± gives the standard deviation.
Assay: protein stability index of a GFP-peptide fusion (GPS, HEK-293T) (PSI 1-6); higher = more stable
Details: c terminus: a fixed tail appended
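Further: 24-mer peptide tiles fused after GFP, lentivirally expressed, FACS-sorted into six equal bins by GFP/DsRed ratio, decoded by Illumina sequencing, PSI is the read-weighted mean bin number.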

| Sequence | protein stability index (treatment: DMSO) | protein stability index (treatment: MLN4924 1 uM, 8 h) |
| --- | --- | --- |
| PPKIRLKPHRLGDSEHEPVYRAEL [PWWP2B] | 4.02 ± 0.19 | 4.09 ± 0.095 |
| PPNGPNLPMATVDIKNPEITTNRF [WASL] | 4.48 ± 0.15 | 4.16 ± 0.29 |
| PPNTRVLRVLPNLPCVVQEGAIVM [PYCR3] | 2.22 ± 0.22 | 2.39 ± 0.25 |
| PPRGPQQLSSFGSVDWLSQSSCSG [VENTX] | 3.77 ± 0.56 | 3.96 ± 0.34 |
| PPSGSQPLTSTQGLEHAAAGGSSG [FBF1] | 5.3 ± 0.2 | 5.44 ± 0.15 |
| PQAHQESTRGAARPAQAIGTQPRA [SPACA9] | 5.08 ± 0.23 | 5.35 ± 0.18 |
| PQGSRSPYIPPHAALCLEVTLKTA [FKBP8] | 2.26 ± 0.33 | 2.1 ± 0.22 |
| PRAKSKVWKYFGFDTNAEGCILQW [ZBED1] | 2.3 ± 0.59 | 2.38 ± 0.081 |
| PRGRAHLLPNPYQQDFLGLPEELR [C22orf15] | 3.92 ± 0.24 | 4.31 ± 0.11 |
| PRKRHREDSDVEMVEDDSRKEMTA [MLH1] | 5.43 ± 0.25 | 5.49 ± 0.18 |
| PRTSEAQARKALFEKWEQETAAGK [SMTNL2] | 5.1 ± 0.31 | 5.02 ± 0.24 |
| PSDAPHAHHPLHPHLMQEHMGTNV [HNF4A] | 4.45 ± 0.24 | 4.5 ± 0.1 |
| PSFLSQTGHGVSRGPSPVVLGSQD [FCHO1] | 4.33 ± 0.3 | 4.3 ± 0.32 |
| PSGHSDAQTLAMMLQEQLDAINEE [PPFIA4] | 4.94 ± 0.44 | 4.46 ± 0.21 |
| PSLEELGFDTDGLSSAVWPGGETE [CRY1] | 5.33 ± 0.28 | 5.29 ± 0.16 |
| PVCRKTSRYRSLRPNRQLGSMVEI [TRIM39] | 2.61 ± 0.15 | 2.83 ± 0.089 |
| PVDPDSQADTVHSNPELDVLLLGS [DNAAF3] | 4.95 ± 0.11 | 5 ± 0.19 |
| PVHLIDKLPLPVTIKSHLKSFSMA [RAB40C] | 2.3 ± 0.081 | 2.34 ± 0.039 |
| PVYLLLELEDKDGLQSAQPTEGQG [MYBL2] | 3.88 ± 0.23 | 3.79 ± 0.058 |
| PWERAMGVDPQQKMELGIDLLAYG [MYOZ1] | 2.97 ± 0.28 | 2.94 ± 0.13 |
| PWVKELQDSKEMKQLLDSKIGFEI [ZNF449] | 2.9 ± 0.49 | 3.01 ± 0.65 |
| PYFLFQHWATGYSKSSHPLIRSLF [SOAT1] | 2.46 ± 0.51 | 2.34 ± 0.74 |
| QAAPGALPVSSPEPPPALPPAADA [TRIM55] | 5.46 ± 0.15 | 5.37 ± 0.28 |

| Sequence | protein stability index (treatment: DMSO) | protein stability index (treatment: MLN4924 1 uM, 8 h) |
| --- | --- | --- |
| QALKFLPVPSAPVIDLAESLVADN [FSD1] | 3.48 ± 0.42 | 3.77 ± 0.28 |
| QALSNVPPLRNYFLEEDNYKNIKR [USP39] | 3.77 ± 0.28 | 4.18 ± 0.48 |
| QEKDQEMERLRELQRASILDMRRD [FBF1] | 4.86 ± 0.22 | 4.79 ± 0.24 |
| QEMVQRPQPHRNRAGLDLPTIDTG [TRAF3IP2] | 4.5 ± 0.26 | 4.59 ± 0.19 |
| QEPPTTDSQEAQSPGHSSAGQEGE [TOR1AIP2] | 5.67 ± 0.25 | 5.56 ± 0.26 |
| QFHDLMELFRIGGKSPDTNYLFMG [PPP2CA] | 2.53 ± 0.58 | 2.24 ± 0.39 |
| QFQDLTGIESMDQCRHTLEQHNWN [FAF2] | 3.1 ± 0.38 | 3.37 ± 0.13 |
| QFSVVSVVAYLALAALSATISFRI [RTN1] | 2.99 ± 0.57 | 3.2 ± 0.55 |
| QGEGPEAGDAEVCPTPARLATTEK [NOP53] | 5.46 ± 0.27 | 5.44 ± 0.19 |
| QGRFCTIFRSYSRGAQGVILVYDI [RAB40A] | 3.15 ± 0.35 | 2.99 ± 0.43 |
| QIKDFKEKIQQDADSVITVGRGEV [ACBD3] | 5.06 ± 0.18 | 5.06 ± 0.32 |
| QKLNVFKNFIGLLQNQNFPYPVLF [NLN] | 2.89 ± 1.1 | 2.76 ± 0.46 |
| QKVASNHSPFSSESRALSTSSNLG [TBX5] | 4.19 ± 0.17 | 4.29 ± 0.085 |
| QLLYSPIENIQRVAAGVLCELAQD [CTNNB1] | 2.29 ± 0.24 | 2.27 ± 0.27 |
| QMTPTNLAVCLAPSLFHLNTLKRE [DLC1] | 2.79 ± 0.044 | 2.53 ± 0.036 |
| QPRIHLVRAAQLCSQHWGGMASFR [TBX6] | 2.38 ± 0.56 | 2.24 ± 0.11 |
| QQDLERSLQDASRGDPAHAGLAEL [PBXIP1] | 5.32 ± 0.18 | 5.38 ± 0.16 |
| QQLNDYEQLLDVKLALDMEISAYR [LMNB1] | 2.95 ± 0.32 | 2.9 ± 0.31 |
| QQLYYTEADYEDDSKIAFLMQLQD [IQUB] | 3.45 ± 0.54 | 3.48 ± 0.51 |
| QRLDYEREIQPTAILSLDQIKAIR [SPRY1] | 3.7 ± 0.061 | 3.87 ± 0.24 |
| QSAFLHLPLPEQIHKASATIIEPA [INTS4] | 3.45 ± 0.31 | 3.82 ± 0.1 |
| QSKGHGRAVDWWALGILIFEMLSG [PRKX] | 2.58 ± 0.58 | 2.56 ± 0.36 |
| QSMSEEEREKVTPLMVKGFRDAAE [SEPHS2] | 5.01 ± 0.27 | 4.88 ± 0.24 |

| Sequence | protein stability index (treatment: DMSO) | protein stability index (treatment: MLN4924 1 uM, 8 h) |
| --- | --- | --- |
| QSSGKVMYFSSLFPYVVLACFLVR [SLC6A17] | 2.6 ± 0.76 | 2.41 ± 0.24 |
| QSVSYSKLLSVIVWMLMLLLAVPN [P2RY14] | 3.24 ± 0.27 | 3.17 ± 0.49 |
| QVDVGDVNDNAPEVLLASLANPVL [PCDHGC5] | 4.07 ± 0.28 | 4.21 ± 0.31 |
| QYVTFLRSFSDKQKISLLHSCTCV [ALG2] | 3.1 ± 0.51 | 2.69 ± 0.48 |
| RAPACSPEAAAAQLRATAGSLILP [FCHO1] | 3.12 ± 0.38 | 3.15 ± 0.34 |
| RARDSPEPGAGLGIGDMAFEGDMG [PSD2] | 4.73 ± 0.13 | 4.91 ± 0.15 |
| RARRTEISKNSEKKMESEEDSNWE [GOLPH3L] | 5.43 ± 0.49 | 5.35 ± 0.44 |
| RCIGVTKPIFHSTKITSKHVKMML [PTGFR] | 2.13 ± 0.27 | 2.15 ± 0.28 |
| RDFDNNTPLHIAAQNNCPAIMNAL [FEM1A] | 3.36 ± 0.3 | 3.46 ± 0.41 |
| RDKNWQTPLHVAAANKAVKCAEVI [ANKRD44] | 3.69 ± 0.38 | 3.7 ± 0.19 |
| RDLTQEQTEKLLQFQDLTGIESMD [FAF2] | 5.04 ± 0.11 | 5.05 ± 0.16 |
| RDNAELEKLIQERSQQQEPLLCPS [KRT34] | 4.94 ± 0.13 | 4.87 ± 0.27 |
| RDPQAVKERALSAPWLSLFPPEGN [ZNF263] | 3.06 ± 0.27 | 3.14 ± 0.33 |
| REDQLDTVLAVLEDSSRDIREALH [INTS4] | 4.21 ± 0.36 | 4.38 ± 0.34 |
| RELREVRRVPPRFSIPPTNHEIMP [PTPRD] | 3.74 ± 0.093 | 3.88 ± 0.14 |
| RESFTSRQKTSGPSVIQEIHQESG [C10orf62] | 4.94 ± 0.099 | 5.02 ± 0.24 |
| RFCCCVAVIYLGYCFCGWIVLGPY [MCOLN1] | 3.41 ± 0.26 | 3.28 ± 0.48 |
| RGENVVLLGEIDLEKESDTPLQQV [LSM1] | 4.96 ± 0.27 | 4.79 ± 0.18 |
| RGKNKMAAQNCRKRKLDTILNLER [NFE2L1] | 3.57 ± 0.33 | 3.63 ± 0.24 |
| RGLPLLKTDFGSCLLQPPSCPNGM [DLC1] | 2.69 ± 0.22 | 2.67 ± 0.41 |
| RHCDDDGRTENGALAPKQELPSAL [ZNF24] | 5.25 ± 0.22 | 5.15 ± 0.21 |
| RHLAHSMLQRAIAYQHSGHLESKD [C10orf62] | 3.91 ± 0.24 | 3.92 ± 0.21 |
| RIGEATKPDGTVEQIGHILVSWLP [NET1] | 2.68 ± 0.29 | 2.56 ± 0.24 |

| Sequence | protein stability index (treatment: DMSO) | protein stability index (treatment: MLN4924 1 uM, 8 h) |
| --- | --- | --- |
| RKLNSRLFVIRGQPADVFPRLFKE [CRY1] | 2.27 ± 0.38 | 2.09 ± 0.39 |
| RKLSLKGHNDWVMDVAISNNKKWI [WDR88] | 2.69 ± 0.42 | 2.39 ± 0.29 |
| RKPKVIECSYTSADGQRHHSKLLV [DHCR7] | 2.72 ± 0.13 | 2.93 ± 0.28 |
| RKVAGMAKPNMIISVNGDVITIKS [FABP4] | 2.37 ± 0.66 | 2.43 ± 0.26 |
| RLCFFPFVENGHSESSGQTHLEGD [CFHR2] | 4.01 ± 0.099 | 4.37 ± 0.15 |
| RLEQEIATYRSLLEGQDAKMIGFP [KRT13] | 3.06 ± 0.1 | 3.36 ± 0.34 |
| RLFQVVGKTDDTLALLNLACMMTI [TMEM175] | 2.92 ± 0.53 | 2.65 ± 0.56 |
| RLIATKNPEEIRGGGLLKYSNLLV [TENT5C] | 2.44 ± 0.35 | 2.26 ± 0.26 |
| RLRPLTLSTPKPLVDFCNKPILLH [GMPPB] | 2.31 ± 0.14 | 2.46 ± 0.51 |
| RMQVLKRQVQSLMVHQRKLEAELL [SMARCE1] | 2.17 ± 0.27 | 2.6 ± 0.45 |
| RQEAIYEMSRGEQDLIEDLKLARK [NET1] | 4.69 ± 0.18 | 4.79 ± 0.099 |
| RQTTGLMEYCLEVIKENDPSGFLQ [TRIM9] | 3.11 ± 0.24 | 3.05 ± 0.34 |
| RQWPTKSQTDRGASAGKRRCFWLG [SDE2] | 2.9 ± 0.24 | 3.19 ± 0.58 |
| RRDPSIPIYGLRQSILLNTRLQDC [C22orf31] | 2.74 ± 0.55 | 2.37 ± 0.31 |
| RRIHSLPQKLLGCSPALKRSHSDS [CDC25A] | 4.89 ± 0.29 | 5.21 ± 0.078 |
| RSEQSVKLRRQVIQVVLNGMESYQ [ZER1] | 2.41 ± 0.13 | 2.32 ± 0.18 |
| RSQSSIVPEEEQAANKGEEKKDDE [SMARCE1] | 5.63 ± 0.25 | 5.68 ± 0.14 |
| RSRDSNSGPEEPLLEEEEKQWGPL [RTN2] | 5.05 ± 0.53 | 5.45 ± 0.53 |
| RTLPNASTVDNIRSIFGNAVSREL [MLH1] | 3.55 ± 0.12 | 3.54 ± 0.17 |
| RVAIAHYQDDPDLRFLLDQVQLGL [TSPAN10] | 2.28 ± 0.25 | 2.36 ± 0.25 |

From the supplement of paper PMC10567573
